Measurements from the supplement of paper PMC9112550, “Optimization of the antimicrobial peptide Bac7 by deep mutational scanning” (BMC Biology, 2022).

Each sequence was assayed on Escherichia coli TOP10 (assay: shrunken log2 fold change of peptide-encoding DNA abundance (4.5 h post-induction vs induction); higher = less antimicrobial activity (less host growth inhibition)). Conditions: time post-induction: 4.5 h; library: site-saturation at positions 5, 18, 19, 20.
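Further: peptides expressed intracellularly from a pBAD plasmid library in pooled LB shake-flask culture, induced with 0.3% L-arabinose, DNA abundance read by NGS, three biological replicates, DESeq2 with apeglm shrinkage.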

Sequence | shrunken log2 fold change
RRIRGRPPRLPRPRPRPANSPRP | 0.186
RRIRMRPPRLPRPRPRPISKPRP | 0.316
RRIRCRPPRLPRPRPRPACYPRP | 0.0371
RRIRLRPPRLPRPRPRPGSQPRP | 0.0681
RRIRFRPPRLPRPRPRPAHNPRP | -0.016
RRIRPRPPRLPRPRPRPTQMPRP | 0.395
RRIRGRPPRLPRPRPRPKWVPRP | 0.233
RRIRKRPPRLPRPRPRPMHVPRP | -0.0434
RRIRMRPPRLPRPRPRPCASPRP | 0.0954
RRIRPRPPRLPRPRPRPCKAPRP | -0.00218
RRIRTRPPRLPRPRPRPSRGPRP | 0.178
RRIRHRPPRLPRPRPRPFWNPRP | 0.034
RRIRSRPPRLPRPRPRPMYFPRP | -0.229
RRIRHRPPRLPRPRPRPESGPRP | -0.0115
RRIRLRPPRLPRPRPRPYDIPRP | 0.00601
RRIRMRPPRLPRPRPRPQKAPRP | 0.0203
RRIRSRPPRLPRPRPRPEHEPRP | -0.182
RRIRFRPPRLPRPRPRPMMHPRP | -0.181
RRIRRRPPRLPRPRPRPNDHPRP | 0.0277
RRIRERPPRLPRPRPRPAADPRP | 0.127
RRIRTRPPRLPRPRPRPMQEPRP | -0.0701
RRIRCRPPRLPRPRPRPRVKPRP | 0.196

Sequence | shrunken log2 fold change
RRIRVRPPRLPRPRPRPCESPRP | -0.374
RRIRKRPPRLPRPRPRPMVNPRP | 1.55
RRIRARPPRLPRPRPRPVQMPRP | 0.21
RRIRKRPPRLPRPRPRPPGDPRP | 0.905
RRIRERPPRLPRPRPRPYGCPRP | -0.105
RRIRMRPPRLPRPRPRPIAWPRP | 0.201
RRIRPRPPRLPRPRPRPYLAPRP | -0.528
RRIRTRPPRLPRPRPRPQFLPRP | -0.352
RRIRKRPPRLPRPRPRPHDIPRP | 0.168
RRIRQRPPRLPRPRPRPETMPRP | 0.192
RRIRKRPPRLPRPRPRPDQSPRP | 0.0875
RRIRCRPPRLPRPRPRPSRNPRP | 0.155
RRIRPRPPRLPRPRPRPCSYPRP | -0.858
RRIRKRPPRLPRPRPRPCIWPRP | 0.0573
RRIRHRPPRLPRPRPRPPAYPRP | 0.181
RRIRNRPPRLPRPRPRPLVQPRP | -0.28
RRIRRRPPRLPRPRPRPCIQPRP | -0.271
RRIRRRPPRLPRPRPRPSYEPRP | -0.33
RRIRCRPPRLPRPRPRPGTYPRP | -0.628
RRIRMRPPRLPRPRPRPAEYPRP | 0.0354
RRIRCRPPRLPRPRPRPHTIPRP | -0.38
RRIRARPPRLPRPRPRPNIHPRP | -0.333

Sequence | shrunken log2 fold change
RRIRKRPPRLPRPRPRPEMNPRP | 2.14
RRIRSRPPRLPRPRPRPRQKPRP | 0.29
RRIRRRPPRLPRPRPRPNAEPRP | 0.0193
RRIRTRPPRLPRPRPRPGWFPRP | 0.461
RRIRWRPPRLPRPRPRPADGPRP | 0.0472
RRIRFRPPRLPRPRPRPIYCPRP | -0.0425
RRIRGRPPRLPRPRPRPNRKPRP | 0.195
RRIRSRPPRLPRPRPRPFVKPRP | -0.222
RRIRSRPPRLPRPRPRPYPSPRP | -0.203
RRIRCRPPRLPRPRPRPWCLPRP | -0.339
RRIRVRPPRLPRPRPRPNRFPRP | 0.11
RRIRGRPPRLPRPRPRPTCWPRP | 0.764
RRIRERPPRLPRPRPRPAEQPRP | -0.163
RRIRFRPPRLPRPRPRPGLGPRP | 0.603
RRIRCRPPRLPRPRPRPRNRPRP | 0.239
RRIRHRPPRLPRPRPRPWMEPRP | -0.00645
RRIRKRPPRLPRPRPRPVVIPRP | -0.112
RRIRYRPPRLPRPRPRPPFVPRP | -0.304
RRIRTRPPRLPRPRPRPRQRPRP | 0.394
RRIRMRPPRLPRPRPRPPKCPRP | 0.0414
RRIRTRPPRLPRPRPRPRHWPRP | 0.0182
RRIRWRPPRLPRPRPRPKRTPRP | 0.668

Sequence | shrunken log2 fold change
RRIRLRPPRLPRPRPRPVQHPRP | -0.0767
RRIRSRPPRLPRPRPRPNEEPRP | 0.0709
RRIRERPPRLPRPRPRPWMFPRP | 0.0458
RRIRARPPRLPRPRPRPNVRPRP | 0.0345
RRIRTRPPRLPRPRPRPIIHPRP | -0.937
RRIRARPPRLPRPRPRPQCQPRP | 0.457
RRIRPRPPRLPRPRPRPGHQPRP | 0.153
RRIRDRPPRLPRPRPRPMPNPRP | -0.258
RRIRKRPPRLPRPRPRPLFWPRP | 0.593
RRIRFRPPRLPRPRPRPKGTPRP | -0.429
RRIRSRPPRLPRPRPRPIHPPRP | -0.0819
RRIRVRPPRLPRPRPRPGYWPRP | 0.0156
RRIRDRPPRLPRPRPRPEIHPRP | 0.597
RRIRMRPPRLPRPRPRPNCTPRP | -0.15
RRIRYRPPRLPRPRPRPNPYPRP | -0.0428
RRIRKRPPRLPRPRPRPLHAPRP | 0.449
RRIRWRPPRLPRPRPRPRRKPRP | 0.178
RRIRVRPPRLPRPRPRPRKIPRP | -0.0978
RRIRIRPPRLPRPRPRPFAMPRP | -0.98
RRIRCRPPRLPRPRPRPHFEPRP | -0.152
RRIRKRPPRLPRPRPRPDRRPRP | 0.18
RRIRMRPPRLPRPRPRPGPIPRP | 0.115

Sequence | shrunken log2 fold change
RRIRWRPPRLPRPRPRPECEPRP | 0.912
RRIRCRPPRLPRPRPRPIQHPRP | -1.21
RRIRFRPPRLPRPRPRPNTEPRP | -0.479
RRIRSRPPRLPRPRPRPIRAPRP | 0.106
RRIRRRPPRLPRPRPRPRHSPRP | 0.226
RRIRCRPPRLPRPRPRPREAPRP | 0.521
RRIRNRPPRLPRPRPRPSQLPRP | 0.00155
RRIRTRPPRLPRPRPRPVANPRP | 0.133
RRIRVRPPRLPRPRPRPQDKPRP | -0.603
RRIRDRPPRLPRPRPRPHLYPRP | 0.0039
RRIRKRPPRLPRPRPRPPWMPRP | 0.48
RRIRWRPPRLPRPRPRPYMWPRP | 0.00889
RRIRIRPPRLPRPRPRPTYKPRP | -1.09
RRIRGRPPRLPRPRPRPFTQPRP | -0.0854
RRIRVRPPRLPRPRPRPRYNPRP | -0.381
RRIRARPPRLPRPRPRPYVTPRP | -0.658
RRIRARPPRLPRPRPRPRKRPRP | 0.778
RRIRPRPPRLPRPRPRPYQKPRP | 0.0104
RRIRQRPPRLPRPRPRPHWAPRP | -0.143
RRIRPRPPRLPRPRPRPGWRPRP | 0.438
RRIRARPPRLPRPRPRPTMVPRP | -0.0882
